Reference: publication PMC4699388

Key:
GATA-1^S310A (human) [1] = molecular target: GATA-1^S310A (human) (UniProt P15976); test: co-IP
GATA-1^S310A (human) [2] = molecular target: GATA-1^S310A (human) (UniProt P15976)

UniProt P15976, sequence (P15976 whole entry S310A): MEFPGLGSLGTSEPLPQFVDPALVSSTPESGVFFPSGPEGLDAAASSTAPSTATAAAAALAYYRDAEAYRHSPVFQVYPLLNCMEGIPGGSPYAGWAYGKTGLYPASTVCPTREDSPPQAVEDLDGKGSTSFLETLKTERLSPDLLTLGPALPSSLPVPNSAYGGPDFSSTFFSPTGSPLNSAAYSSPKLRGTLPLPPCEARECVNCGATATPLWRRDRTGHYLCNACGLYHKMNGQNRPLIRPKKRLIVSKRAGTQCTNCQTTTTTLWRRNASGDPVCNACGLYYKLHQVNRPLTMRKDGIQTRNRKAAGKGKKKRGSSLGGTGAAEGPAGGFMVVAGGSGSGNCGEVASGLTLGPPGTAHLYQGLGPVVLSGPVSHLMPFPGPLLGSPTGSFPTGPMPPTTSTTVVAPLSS

rate of binding to FOG-1 (GATA-1^S310A (human) [1]): 62 | relative affinity against wild-type GATA-1 (fold less) (GATA-1^S310A (human) [2]): 25 fold
Substance: FOG-1 (mouse), in NIH-3T3 cells (from UniProt O35615 1-995) (natural protein)
